Measurements published in patent US20240132578A1.

What was measured:
Assay in all cases: cell-based or functional assay
[1] = biological target: HIV-1 Env of isolate 93MW959 (subtype C) (HIV-1)
[2] = biological target: HIV-1 Env of isolate MGRM-G-019 (subtype G), on pseudovirus (HIV-1)
[3] = biological target: HIV-1 Env of isolate MGRM-C-012 (subtype C) (HIV-1)
[4] = biological target: HIV-1 Env of isolate MGRM-C-025 (subtype C) (HIV-1)
[5] = biological target: HIV-1 Env of isolate MGRM-C-024 (subtype C) (HIV-1)
[6] = biological target: HIV-1 Env of isolate MGRM-G-017 (subtype G), on pseudovirus (HIV-1)
[7] = biological target: aMLV envelope, on pseudovirus (negative control)
[8] = biological target: HIV-1 Env of isolate MGRM-G-006 (subtype G), on pseudovirus (HIV-1)
[9] = biological target: HIV-1 Env of isolate MGRM-G-027 (subtype G), on pseudovirus (HIV-1)
[10] = biological target: HIV-1 Env of isolate MGRM-C-020 (subtype C) (HIV-1)
[11] = biological target: HIV-1 Env of isolate MGRM-C-026 (subtype C) (HIV-1)
[12] = biological target: HIV-1 Env of isolate MGRM-C-019 (subtype C) (HIV-1)
[13] = biological target: HIV-1 JR-CSF Env D477A (HIV-1 JR-CSF) (UniProt P20871)
[14] = biological target: HIV-1 Env of isolate MGRM-G-011 (subtype G), on pseudovirus (HIV-1)
[15] = biological target: HIV-1 Env of isolate MGRM-C-009 (subtype C) (HIV-1)
[16] = biological target: HIV-1 Env of isolate MGRM-C-027 (subtype C) (HIV-1)
[17] = biological target: HIV-1 Env of isolate MGRM-C-010 (subtype C) (HIV-1)
[18] = biological target: HIV-1 Env of isolate MGRM-C-017 (subtype C) (HIV-1)
[19] = biological target: HIV-1 Env of isolate MGRM-C-007 (subtype C) (HIV-1)
[20] = biological target: HIV-1 Env of isolate MGRM-C-013 (subtype C) (HIV-1)
[21] = biological target: HIV-1 Env of isolate MGRM-C-015 (subtype C) (HIV-1)
[22] = biological target: HIV-1 Env of isolate MGRM-C-006 (subtype C) (HIV-1)
[23] = biological target: HIV-1 Env of isolate MGRM-G-028 (subtype G), on pseudovirus (HIV-1)
[24] = biological target: HIV-1 Env of isolate MGRM-G-015 (subtype G), on pseudovirus (HIV-1)
[25] = biological target: HIV-1 Env of isolate MGRM-G-024 (subtype G), on pseudovirus (HIV-1)
[26] = biological target: HIV-1 Env of isolate MGRM-C-028 (subtype C) (HIV-1)
[27] = biological target: HIV-1 Env of isolate MGRM-G-025 (subtype G), on pseudovirus (HIV-1)
[28] = biological target: HIV-1 JR-CSF Env R476A (HIV-1 JR-CSF) (UniProt P20871)
[29] = biological target: HIV-1 Env of isolate MGRM-C-023 (subtype C) (HIV-1)
[30] = biological target: HIV-1 Env of isolate 98IN022 (subtype C) (HIV-1)
[31] = biological target: HIV-1 Env of isolate 97ZA012 (subtype C) (HIV-1)
[32] = biological target: HIV-1 Env of isolate MGRM-C-008 (subtype C) (HIV-1)
[33] = biological target: HIV-1 Env of isolate MGRM-G-016 (subtype G), on pseudovirus (HIV-1)
[34] = biological target: HIV-1 Env of isolate MGRM-C-005 (subtype C) (HIV-1)
[35] = biological target: HIV-1 Env of isolate MGRM-G-009 (subtype G), on pseudovirus (HIV-1)
[36] = biological target: HIV-1 Env of isolate MGRM-C-002 (subtype C) (HIV-1)
[37] = biological target: HIV-1 Env of isolate MGRM-C-004 (subtype C) (HIV-1)
[38] = biological target: HIV-1 Env of isolate MGRM-G-001 (subtype G), on pseudovirus (HIV-1)
[39] = biological target: HIV-1 Env of isolate MGRM-C-014 (subtype C) (HIV-1)
[40] = biological target: HIV-1 Env of isolate MGRM-G-014 (subtype G), on pseudovirus (HIV-1)
[41] = biological target: HIV-1 Env of isolate MGRM-G-013 (subtype G), on pseudovirus (HIV-1)
[42] = biological target: HIV-1 Env of isolate MGRM-G-004 (subtype G), on pseudovirus (HIV-1)
[43] = biological target: HIV-1 Env of isolate MGRM-C-001 (subtype C) (HIV-1)
[44] = biological target: HIV-1 Env of isolate MGRM-C-022 (subtype C) (HIV-1)
[45] = biological target: HIV-1 JR-CSF Env N478A (HIV-1 JR-CSF) (UniProt P20871)

B1: PGT-123 (antibody, V domains shown)
VH: QLHLQESGPGLVKPPETLSLTCSVSGASINDAYWSWIRQSPGKRPEWVGYVHHSGDTNYNPSLKRRVTFSLDTAKNEVSLKLVDLTAADSATYFCARALHGKRIYGIVALGELFTYFYMDVWGKGTAVTVSS
VL: SSMSVSPGETAKISCGKESIGSRAVQWYQQKPGQPPSLIIYNNQDRPAGVPERFSASPDFRPGTTATLTITNVDAEDEADYYCHIYDARGGTNWVFDRGTTLTVL
IC50 (µg/mL), pseudovirus neutralization [1]: 0.011 µg/mL | IC50 (µg/mL), neutralization of pseudovirus [2]: 0.008 µg/mL | IC50 (µg/mL), pseudovirus neutralization [3]: 0.605 µg/mL | IC50 (µg/mL), pseudovirus neutralization [4]: 13.3 µg/mL | IC50 (µg/mL), pseudovirus neutralization [5]: 0.195 µg/mL | IC50 (µg/mL), neutralization of pseudovirus [6]: 0.026 µg/mL | IC50 (µg/mL), neutralization of pseudovirus [7]: > 50 µg/mL | IC50 (µg/mL), neutralization of pseudovirus [8]: > 50 µg/mL | IC50 (µg/mL), neutralization of pseudovirus [9]: 0.182 µg/mL | IC50 (µg/mL), pseudovirus neutralization [10]: > 50 µg/mL | IC50 (µg/mL), pseudovirus neutralization [11]: 0.001 µg/mL | IC50 (µg/mL), pseudovirus neutralization [12]: > 50 µg/mL | Fold IC50 increase relative to wild-type [13]: 2.3 fold | IC50 (µg/mL), neutralization of pseudovirus [14]: 14.9 µg/mL | IC50 (µg/mL), pseudovirus neutralization [15]: > 50 µg/mL | IC50 (µg/mL), pseudovirus neutralization [16]: 0.02 µg/mL | IC50 (µg/mL), pseudovirus neutralization [17]: > 50 µg/mL | IC50 (µg/mL), pseudovirus neutralization [18]: 0.01 µg/mL | IC50 (µg/mL), pseudovirus neutralization [19]: 0.547 µg/mL | IC50 (µg/mL), pseudovirus neutralization [20]: 14.9 µg/mL | IC50 (µg/mL), pseudovirus neutralization [21]: 13.1 µg/mL | IC50 (µg/mL), pseudovirus neutralization [22]: 0.021 µg/mL | IC50 (µg/mL), neutralization of pseudovirus [23]: 0.008 µg/mL | IC50 (µg/mL), neutralization of pseudovirus [24]: > 50 µg/mL | IC50 (µg/mL), neutralization of pseudovirus [25]: 0.032 µg/mL | IC50 (µg/mL), pseudovirus neutralization [26]: 0.402 µg/mL | IC50 (µg/mL), neutralization of pseudovirus [27]: 0.046 µg/mL | Fold IC50 increase relative to wild-type [28]: 2 fold | IC50 (µg/mL), pseudovirus neutralization [29]: 0.011 µg/mL | IC50 (µg/mL), pseudovirus neutralization [30]: 0.011 µg/mL | IC50 (µg/mL), pseudovirus neutralization [31]: 0.002 µg/mL | IC50 (µg/mL), pseudovirus neutralization [32]: 0.011 µg/mL | IC50 (µg/mL), neutralization of pseudovirus [33]: > 50 µg/mL | IC50 (µg/mL), pseudovirus neutralization [34]: 0.012 µg/mL | IC50 (µg/mL), neutralization of pseudovirus [35]: 33.5 µg/mL | IC50 (µg/mL), pseudovirus neutralization [36]: 0.01 µg/mL | IC50 (µg/mL), pseudovirus neutralization [37]: 0.009 µg/mL | IC50 (µg/mL), neutralization of pseudovirus [38]: 0.009 µg/mL | IC50 (µg/mL), pseudovirus neutralization [39]: 1 µg/mL | IC50 (µg/mL), neutralization of pseudovirus [40]: 0.005 µg/mL | IC50 (µg/mL), neutralization of pseudovirus [41]: 3.97 µg/mL | IC50 (µg/mL), neutralization of pseudovirus [42]: 0.181 µg/mL | IC50 (µg/mL), pseudovirus neutralization [43]: 42.4 µg/mL | IC50 (µg/mL), pseudovirus neutralization [44]: 0.01 µg/mL

B2: PGT-125 (antibody, V domains shown)
VH: QSQLQESGPRLVEASETLSLTCNVSGESTGACTYFWGWVRQAPGKGLEWIGSLSHCQSFWGSGWTFHNPSLKSRLTISLDTPKNQVFLKLTSLTAADTATYYCARFDGEVLVYNHWPKPAWVDLWGRGIPVTVSS
VL: QSALTQPPSASGSPGQSITISCNGTATNFVSWYQQFPDKAPKLIIFGVDKRPPGVPDRFSGSRSGTTASLTVSRLQTDDEAVYYCGSLVGNWDVIFGGGTTLTVL
IC50 (µg/mL), pseudovirus neutralization [1]: 37.5 µg/mL | IC50 (µg/mL), neutralization of pseudovirus [2]: > 50 µg/mL | IC50 (µg/mL), pseudovirus neutralization [3]: > 50 µg/mL | IC50 (µg/mL), pseudovirus neutralization [4]: 42.5 µg/mL | IC50 (µg/mL), pseudovirus neutralization [5]: > 50 µg/mL | IC50 (µg/mL), neutralization of pseudovirus [6]: > 50 µg/mL | IC50 (µg/mL), neutralization of pseudovirus [7]: > 50 µg/mL | IC50 (µg/mL), neutralization of pseudovirus [8]: > 50 µg/mL | IC50 (µg/mL), neutralization of pseudovirus [9]: 34.4 µg/mL | Fold IC50 increase relative to wild-type [45]: 1.5 fold | IC50 (µg/mL), pseudovirus neutralization [10]: > 50 µg/mL | IC50 (µg/mL), pseudovirus neutralization [11]: 0.005 µg/mL | IC50 (µg/mL), pseudovirus neutralization [12]: 0.13 µg/mL | Fold IC50 increase relative to wild-type [13]: 3.4 fold | IC50 (µg/mL), neutralization of pseudovirus [14]: > 50 µg/mL | IC50 (µg/mL), pseudovirus neutralization [15]: > 50 µg/mL | IC50 (µg/mL), pseudovirus neutralization [16]: > 50 µg/mL | IC50 (µg/mL), pseudovirus neutralization [17]: > 50 µg/mL | IC50 (µg/mL), pseudovirus neutralization [18]: 2.36 µg/mL | IC50 (µg/mL), pseudovirus neutralization [19]: > 50 µg/mL | IC50 (µg/mL), pseudovirus neutralization [20]: > 50 µg/mL | IC50 (µg/mL), pseudovirus neutralization [21]: > 50 µg/mL | IC50 (µg/mL), pseudovirus neutralization [22]: 0.015 µg/mL | IC50 (µg/mL), neutralization of pseudovirus [23]: 0.012 µg/mL | IC50 (µg/mL), neutralization of pseudovirus [24]: > 50 µg/mL | IC50 (µg/mL), neutralization of pseudovirus [25]: > 50 µg/mL | IC50 (µg/mL), pseudovirus neutralization [26]: 14 µg/mL | IC50 (µg/mL), neutralization of pseudovirus [27]: > 50 µg/mL | IC50 (µg/mL), pseudovirus neutralization [29]: 1.31 µg/mL | IC50 (µg/mL), pseudovirus neutralization [30]: 22.1 µg/mL | IC50 (µg/mL), pseudovirus neutralization [31]: 2.46 µg/mL | IC50 (µg/mL), pseudovirus neutralization [32]: > 50 µg/mL | IC50 (µg/mL), neutralization of pseudovirus [33]: > 50 µg/mL | IC50 (µg/mL), pseudovirus neutralization [34]: 2.09 µg/mL | IC50 (µg/mL), neutralization of pseudovirus [35]: > 50 µg/mL | IC50 (µg/mL), pseudovirus neutralization [36]: 0.008 µg/mL | IC50 (µg/mL), pseudovirus neutralization [37]: 1.82 µg/mL | IC50 (µg/mL), neutralization of pseudovirus [38]: 0.033 µg/mL | IC50 (µg/mL), pseudovirus neutralization [39]: > 50 µg/mL | IC50 (µg/mL), neutralization of pseudovirus [40]: 0.007 µg/mL | IC50 (µg/mL), neutralization of pseudovirus [41]: > 50 µg/mL | IC50 (µg/mL), neutralization of pseudovirus [42]: > 50 µg/mL | IC50 (µg/mL), pseudovirus neutralization [43]: > 50 µg/mL | IC50 (µg/mL), pseudovirus neutralization [44]: 1.23 µg/mL
